Measurements: the Immune Epitope Database (IEDB)

What was measured:
HLA-A*31:01 [1] = assay: IEDB peptide-MHC binding, purified MHC/competitive/fluorescence; ≥ and ≤ were set here for values at or beyond the usual limits of such assays; details: source organism: Homo sapiens
HLA-A*02:01 = assay: IEDB peptide-MHC binding, purified MHC/direct/fluorescence; filed as Kd, often an IC50 or EC50 that approximates it; ≥ and ≤ were set here for values at or beyond the usual limits of such assays; details: source organism: Clostridium botulinum
HLA-A*02:11 = assay: as above; details: source organism: Clostridium botulinum NCTC 2916
HLA-B*18:01 = assay: as above; details: source organism: Clostridium botulinum
HLA-B*46:01 = assay: as above; details: source organism: Clostridium botulinum
HLA-B*08:02 = assay: as above; details: source organism: Clostridium botulinum NCTC 2916
HLA-A*02:19 = assay: as above; details: source organism: Clostridium botulinum NCTC 2916
HLA-B*40:01 = assay: as above; details: source organism: Clostridium botulinum
HLA-A*31:01 [2] = assay: as above; details: source organism: Clostridium botulinum
HLA-B*44:02 = assay: as above; details: source organism: Clostridium botulinum
HLA-B*15:01 = assay: as above; details: source organism: Clostridium botulinum
HLA-A*11:01 = assay: as above; details: source organism: Clostridium botulinum
HLA-A*02:12 = assay: as above; details: source organism: Clostridium botulinum NCTC 2916
HLA-A*02:03 = assay: as above; details: source organism: Clostridium botulinum NCTC 2916
HLA-B*27:05 = assay: as above; details: source organism: Clostridium botulinum
HLA-B*08:01 = assay: as above; details: source organism: Clostridium botulinum NCTC 2916
HLA-A*03:01 = assay: as above; details: source organism: Clostridium botulinum
HLA-A*02:06 = assay: as above; details: source organism: Clostridium botulinum NCTC 2916
HLA-B*15:09 = assay: as above; details: source organism: Clostridium botulinum NCTC 2916
HLA-A*69:01 = assay: as above; details: source organism: Clostridium botulinum
HLA-A*01:01 = assay: as above; details: source organism: Clostridium botulinum
HLA-B*07:02 = assay: as above; details: source organism: Clostridium botulinum
HLA-A*24:02 = assay: as above; details: source organism: Clostridium botulinum
HLA-B*58:01 = assay: as above; details: source organism: Clostridium botulinum

Sequence: VTMGTGTFGR
- IC50 (HLA-A*31:01 [1]): 357 nM

Sequence: RVYINVVVK
- Kd (HLA-A*02:01): 982 nM
- Kd (HLA-A*02:11): 603 nM
- Kd (HLA-B*18:01): ≥ 20 µM
- Kd (HLA-B*46:01): ≥ 20 µM
- Kd (HLA-B*08:02): ≥ 20 µM
- Kd (HLA-A*02:19): 2140 nM
- Kd (HLA-B*40:01): ≥ 20 µM
- Kd (HLA-A*31:01 [2]): 231 nM
- Kd (HLA-B*44:02): ≥ 20 µM
- Kd (HLA-B*15:01): ≥ 20 µM
- Kd (HLA-A*11:01): 484 nM
- Kd (HLA-A*02:12): 697 nM
- Kd (HLA-A*02:03): 599 nM
- Kd (HLA-B*27:05): ≥ 20 µM
- Kd (HLA-B*08:01): ≥ 20 µM
- Kd (HLA-A*03:01): 241 nM
- Kd (HLA-A*02:06): 263 nM
- Kd (HLA-B*15:09): ≥ 20 µM
- Kd (HLA-A*69:01): ≥ 20 µM
- Kd (HLA-A*01:01): ≥ 20 µM
- Kd (HLA-B*07:02): ≥ 20 µM
- Kd (HLA-A*24:02): ≥ 20 µM
- Kd (HLA-B*58:01): ≥ 20 µM
